Laboratory results published in the supplement of paper PMC7125110.
± gives the standard error. Fewer inactive variants are shown than the library holds.

B1: glmS ribozyme (parent)
chain: AUAAAAGCGCCAGAACUACAGAAAUGUAGUUGACGAGGAGGAGGUUUAUCGAAUUUUCGGCGGAUGCCUCCAAA

Tests used:
Conditions in all cases: with glucosamine-6-phosphate
glucosamine-6-phosphate [1] = variants of: B1; experiment: self-cleavage kobs at 640 uM GlcN6P; higher = faster cleavage; RNA array
Method in brief: (§1)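 Weighted Michaelis–Menten fits across concentrations supplied kcat and KM, based on kobs from one- or two-exponential decay fits to normalised per-tile medians. The data came from barcoded ribozyme variants transcribed in situ by E. coli RNA polymerase on sequenced MiSeq chips and tracked at 37 °C by a hybridised Cy3 probe. Glucosamine-6-phosphate (40 μM to 10 mM) in HEPES/KCl/Mg(OAc)2 buffer was flowed in.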

glucosamine-6-phosphate [2] = variants of: B1; experiment: self-cleavage kobs at 10000 uM GlcN6P; higher = faster cleavage; RNA array
Method in brief: as §1

glucosamine-6-phosphate [3] = variants of: B1; experiment: self-cleavage kobs at 2500 uM GlcN6P; higher = faster cleavage; RNA array
Method in brief: as §1

Variant	self-cleavage kobs at 640 uM GlcN6P (glucosamine-6-phosphate [1]) [s⁻¹]	self-cleavage kobs at 10000 uM GlcN6P (glucosamine-6-phosphate [2]) [s⁻¹]	self-cleavage kobs at 2500 uM GlcN6P (glucosamine-6-phosphate [3]) [s⁻¹]
G9A A14G G38U	< 1e-05	< 1e-05	
G13C A15C C61U A64U C67A	< 1e-05		
G43C G44A C68A	< 1e-05		< 1e-05
A33C G66C	< 1e-05		
A15U U45C G66U C67G	7.69e-05 ± 2.9e-05		0.000193 ± 5.8e-05
C8A G32A A36C G41A A42U	< 1e-05		< 1e-05
A39U A42G U65G	0.000684 ± 0.00016		
C8A G9A A15G A48C U57A G60A	< 1e-05		
G13C A14G U56C	6.74e-05 ± 1.6e-05		0.000185 ± 4.6e-05
A15C G35U G41A U65C C68A	< 1e-05		< 1e-05
A14C G59C C71A	< 1e-05		
G41C A48U C71U	< 1e-05		
U57C C61U G63A	< 1e-05	< 1e-05	< 1e-05
C10U G35U G51A	< 1e-05		
G9A U45C A53U G60C	< 1e-05		
A12U C67G C71A	< 1e-05		
G7U C8A U30G G44C	< 1e-05		

Variant	self-cleavage kobs at 640 uM GlcN6P (glucosamine-6-phosphate [1]) [s⁻¹]	self-cleavage kobs at 10000 uM GlcN6P (glucosamine-6-phosphate [2]) [s⁻¹]	self-cleavage kobs at 2500 uM GlcN6P (glucosamine-6-phosphate [3]) [s⁻¹]
A12U G29A U31C	0.000169 ± 4.1e-05	0.000943 ± 0.00018	0.00041 ± 0.00015
G7C U46C	< 1e-05	< 1e-05	< 1e-05
G29U A33U G44U A52U	< 1e-05		
A15U A33G G41U	< 1e-05		
G29U A33U G43C G60C G62U C71G	< 1e-05		< 1e-05
A14G U54A C58A C68U	9.22e-05 ± 1.9e-05		0.000131 ± 2.9e-05
C11G C50A A52G	< 1e-05		
G44A A48U U56G	< 1e-05		< 1e-05
U49C C58U G66A	< 1e-05		
C34G G44A U56C U57C	< 1e-05		
C8G G32U G40A G44C C58U	< 1e-05		< 1e-05
U55G G63U U65G	< 1e-05		< 1e-05
G44C C58G C61G	< 1e-05		
C10U A15C G43U G63U	< 1e-05		< 1e-05
C8G G32A U57G C67U	< 1e-05		
A12U C34G G51U U57A U65G	< 1e-05		
